# According to the supplement of paper PMC12764529:
# ± gives the half width of the 95% confidence interval.
# Columns and labels:
# [1] = folding stability dG unfold from trypsin proteolysis; higher = more stable
# Procedure, shortened: (§1)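 How resistant each design was to proteolysis was captured as K50, inferred by Bayesian fitting of sequencing counts. Unfolding free energy was then derived relative to a sequence-predicted unfolded-state K50 and a shared folded-state K50, per protease or combined. Digestion used trypsin and chymotrypsin at 11 threefold-diluted concentrations plus a no-protease condition, on mini-proteins under 80 residues without cysteine in a PA-tagged cDNA display construct. Designs were kept only when AlphaFold2 dimer inter-PAE was above 15.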
# [2] = folding stability dG unfold from chymotrypsin proteolysis; higher = more stable
# Procedure, shortened: as §1
# [3] = folding stability dG unfold (combined trypsin and chymotrypsin); higher = more stable
# Procedure, shortened: as §1
Sequence,folding stability dG unfold [1] [kcal/mol],folding stability dG unfold [2] [kcal/mol],folding stability dG unfold [3] [kcal/mol]
SAGGSAGGSMKTIELPNGMKITVEKDEETGVYTITITFPDGSKKTITVPKGTSLEDLVIEIKPSAGGSAGGS [r12_261_TrROS_Hall],2.54 ± 0.095,4.38 ± 0.21,4.04 ± 0.13
SAGGSAGGSMKTTLLAEKELPDGTRVELTRVESPGSLTYEVVTVSPEGTEVRTLPPDELPYLLSAGGSAGGS [r12_315_JUSTAS],1.22 ± 0.082,0.399 ± 0.23,0.912 ± 0.15
SAGGSAGGSMKTVEITIPFYSTTTDPVPSLGLLKTYLEEPEIKLKISPEEYKKLKKTPILKELSAGGSAGGS [r12_1015_JUSTAS],-0.229 ± 0.33,0.412 ± 0.26,0.234 ± 0.27
SAGGSAGGSMKVYRIKIEVDGKTYEIEVEMSEEEVKKLAEELGIKDVKIKKVEIEPVEEVEEKSAGGSAGGS [r12_292_TrROS_Hall],0.859 ± 0.18,2.07 ± 0.1,1.92 ± 0.21
SAGGSAGGSMKWTSIASYPHPDMVVHVIKFEGGGELTFPAPFEDLVEIAEKFDLDLEFTGDHPSAGGSAGGS [r12_676_TrMRF],0.45 ± 0.072,0.28 ± 0.11,0.447 ± 0.11
SAGGSAGGSMNTTTTPTAVPAGATLTVTVTSSSKSYSVPPAGPVTVTTTSGSSGTTVTVDVVASAGGSAGGS [r12_919_JUSTAS],0.314 ± 0.022,0.618 ± 0.051,0.53 ± 0.043
SAGGSAGGSMPAGVLVTVTITITKPGKPETLDELDVTVAEGDLDALEEEFAEKYPGLEVTVVRSAGGSAGGS [r12_21_JUSTAS],0.818 ± 0.08,1.92 ± 0.089,1.6 ± 0.1
SAGGSAGGSMPDLRPAPVPALVIPLDLPLEEAIEKARELLDLPEDTEIPIAEFDPETGKIVIASAGGSAGGS [r12_815_TrMRF],0.533 ± 0.024,1.94 ± 0.051,1.57 ± 0.039
SAGGSAGGSMPGETVTLNVKTTVEVTTTLSSPSGSPFPVSVTREVTIPITVSSEELKKGLITLESAGGSAGG [r6_138_JUSTAS],-0.473 ± 0.2,0.291 ± 0.15,0.229 ± 0.13
SAGGSAGGSMPPNFRVMIHDDDGEERTFHMSPEDLKEFADNLPDVKVEPHPPGMMHITVRVPKSAGGSAGGS [r20_231_TrROS],-0.72 ± 0.19,0.454 ± 0.085,0.101 ± 0.092
SAGGSAGGSMPVVEVEITVSYTVPETGEILTKPETITMTPEEAEKIKEELEKKGYKVEVKYNPKSAGGSAGG [r6_97_JUSTAS],0.824 ± 0.043,1.21 ± 0.067,1.15 ± 0.1
SAGGSAGGSMPVVRIKVRYFNKDGKPVKEKEITITLPAEEITADELRKRLEEAGYEIVEIEVVSAGGSAGGS [r12_611_TrROS_Hall],3.42 ± 0.08,3.63 ± 0.054,3.58 ± 0.061
SAGGSAGGSMRIEFPELGVEVELEPLPGPHVLLRAVFPDGRVYLFRLDPDGRLVEVEPVEVLASAGGSAGGS [r12_56_TrMRF],2.99 ± 0.089,3.42 ± 0.035,3.23 ± 0.11
SAGGSAGGSMSLKGVKITEVTNPGGKVTITYTGDGVPQTITIPPAERALIEKLRESGDISFSPSAGGSAGGS [r12_604_JUSTAS],0.708 ± 0.043,0.579 ± 0.17,0.743 ± 0.1
SAGGSAGGSMSPSSSYTIEKVSEDPSRGVITLKITYPTGESITLKLSPADEEKAEEEAKKLLESAGGSAGGS [r20_167_JUSTAS],1.68 ± 0.04,1.63 ± 0.1,1.63 ± 0.17
SAGGSAGGSMSVTLVKVERDPANNTITVTIKLPSGETAFTKTVAPGTTVTITFPDGTVLTVTESAGGSAGGS [r12_441_JUSTAS],3.12 ± 0.078,3.1 ± 0.035,3.07 ± 0.061
SAGGSAGGSMSVTVVGRVPGLGLVEVVIHRPDEPVVVTVPRSEVEALLAAFPYPDAVVTTRDASAGGSAGGS [r12_23_JUSTAS],-0.043 ± 0.047,0.205 ± 0.028,0.151 ± 0.056
SAGGSAGGSMTAEELAKAFPNLPKEEITEIRVEKNEDGTITVTITVKNKNGEKIEIKVEIKLESAGGSAGGS [r12_1050_TrROS_Hall],1.34 ± 0.097,2.16 ± 0.067,2.03 ± 0.1
SAGGSAGGSMTIKITLPEEGEKVKITIFVNGEEKEIEIEPGEEITIELPENVKNAIIIIEKEPSAGGSAGGS [r12_729_TrROS_Hall],2.49 ± 0.1,2.48 ± 0.058,2.54 ± 0.11
SAGGSAGGSMTIPILFPIPPGQPPGMEITFRFPGYKIEIEILEVDPENGWIAFMIELTDPGDDSAGGSAGGS [r12_1039_TrROS],3.13 ± 0.093,4.36 ± 0.095,3.92 ± 0.11
SAGGSAGGSMTSVTTLVETETLTNGNTIVPQLVQITVTLEVPAVPPEEIKPKPAPGDRWTYYSSAGGSAGGS [r12_1031_JUSTAS],1.01 ± 0.073,1.1 ± 0.16,1.12 ± 0.18

Sequence,folding stability dG unfold [1] [kcal/mol],folding stability dG unfold [2] [kcal/mol],folding stability dG unfold [3] [kcal/mol]
SAGGSAGGSMTTKTFKLPDGRTVTVTTEKLPNGTTKTTVTITVPGTGKTTTVPASEVPADFSGSAGGSAGGS [r12_797_JUSTAS],1.24 ± 0.038,2.08 ± 0.025,1.83 ± 0.068
SAGGSAGGSMTTSTEVVELSGGSSLTVEREYTVEEVKVDDKWETVTHEVVTTPDSTTVREIKPSAGGSAGGS [r12_128_JUSTAS],0.233 ± 0.063,0.621 ± 0.068,0.526 ± 0.19
SAGGSAGGSMTVTITFAPDESLGPEKLEELLKKAGPDTTIVLSKYDPATGTTSTATIKVEPGSSAGGSAGGS [r12_913_JUSTAS],0.697 ± 0.046,1.25 ± 0.013,1.07 ± 0.07
SAGGSAGGSMTWTETVITLKGNGSETTTYKAKVTEDPSSDTVLVTLPDGTPLTIPKSQVTINSSAGGSAGGS [r12_256_JUSTAS],-0.131 ± 0.18,0.668 ± 0.14,0.399 ± 0.096
SAGGSAGGSMVEGELPDAKVTVFFHPDGGALALVEFETETVLARIDVLPDDTLKITVIPAKDASAGGSAGGS [r12_669_TrMRF],2.05 ± 0.05,2.252 ± 0.01,2.16 ± 0.072
SAGGSAGGSMVIRVTTKDGEEVELEIEGMSLEEIKALLPEGVKEVKIEKVEVEPVEVEEEEEESAGGSAGGS [r12_767_TrROS_Hall],1.31 ± 0.1,1.99 ± 0.27,1.72 ± 0.21
SAGGSAGGSMVLRIKTEDGEEIEIELPEELKELSAEEIAELLGLDEVKVVEVEVVEPEEEEEESAGGSAGGS [r12_411_TrROS_Hall],0.256 ± 0.043,2.01 ± 0.05,1.66 ± 0.19
SAGGSAGGSMVRVTRLPDGTYRIEIELPGESLEREARGPEEVEALAEEIEKETGVPVEIETLESAGGSAGGS [r12_783_JUSTAS],1.1 ± 0.068,0.908 ± 0.096,0.945 ± 0.14
SAGGSAGGSMVYTPPEVLTPVREVTITVTTSSYSPSGGTPVTSTSTVPVLVYKDPSGRTAIVPPSAGGSAGG [r6_278_JUSTAS],-0.0213 ± 0.072,0.195 ± 0.19,0.159 ± 0.11
SAGGSAGGSMYLIRVTTEDNIELTFLVSEDDIEAFEAFAKALAELFPVPVKVEIEPVEEGEEVSAGGSAGGS [r12_385_TrMRF],3.2 ± 0.16,3.74 ± 0.043,3.54 ± 0.086
SAGGSAGGSMYYVVVTRPGGRPEVIVVPTETLEEVEEVAARIAEALRELGIPEEELEIRVLPVSAGGSAGGS [r12_295_TrMRF],2.4 ± 0.046,1.679 ± 0.016,2.03 ± 0.091
SAGGSAGGSNDPPEIKIDYEYNPNNGMYTANITIPNGRKLKITFPGDDAEDAEEQAKNLIEKLSAGGSAGGS [r12_339_TrROS],0.539 ± 0.089,1.57 ± 0.091,1.28 ± 0.38
SAGGSAGGSNFRIIEFDIKLKIPVMKMEPDPDGKPKMEMQPVKIPIKVTIFVFGNGIFIMITFSAGGSAGGS [r20_58_TrROS],3.42 ± 0.24,5.29 ± 0.16,5.11 ± 0.29
SAGGSAGGSNGKKIEIDIFWPRPMAETIVKELWKGSNIKPIKIKVIPMPEDDPKYKEFMDKLKSAGGSAGGS [r12_649_TrROS],0.109 ± 0.079,0.188 ± 0.12,0.247 ± 0.12
SAGGSAGGSNIKIPSLQIYPNPNGYYISIKIEHEHPDPDGKKHEVEMSFMIWVPPGESLEDLFSAGGSAGGS [r12_889_TrROS],2.1 ± 0.078,2.43 ± 0.049,2.29 ± 0.12
SAGGSAGGSNMPPGMEVEMEPIIEREIKNPNGRKLKIKIYVMKIRPPGGPPMFFIALDIQILDSAGGSAGGS [r12_544_TrROS],3.48 ± 0.16,5.03 ± 0.28,4.52 ± 0.22
SAGGSAGGSNRLVFRFGGYYYVVEIKPPNGKEETIMMPPDDIDDLPKNWKVEVEPIKPGQPIPSAGGSAGGS [r12_419_TrROS],1.09 ± 0.12,1.46 ± 0.23,1.18 ± 0.2
SAGGSAGGSNYINVKIEIWDPPNGKEREITINIPVPPGDPDYLKEIVNELASNFPGYYVKVEISAGGSAGGS [r12_795_TrROS],1.61 ± 0.11,1.61 ± 0.058,1.64 ± 0.23
SAGGSAGGSNYVVRIKIRYPDPDGKPIYEHTIDIPVPDEEITADELRKQLKPPGYEITDIEVLSAGGSAGGS [r12_611_TrROS],0.509 ± 0.028,0.314 ± 0.16,0.57 ± 0.12
SAGGSAGGSPDNWITFIFISISYKWKITKWDPENGGWKIEIKDVSIEIEIIRLPADDADKLFKSAGGSAGGS [r12_723_TrROS],2.63 ± 0.079,4.34 ± 0.062,3.85 ± 0.13
SAGGSAGGSPDVVVTVEKNEDGEETVTVLMSREDVERLAAALPDVKVEELPDGLVLLTVRVKPSAGGSAGGS [r20_231_TrROS_Hall],0.51 ± 0.038,0.827 ± 0.07,0.728 ± 0.089
